This is an account of results in US20250223361A1 (MABTREE BIOLOGICS, published 2025).

Assay [1] concerns the target T1, human PD-L1.his Protein (human, UniProt Q9NZQ7 19-238, limits assumed).
T1 construct: Produced in-house (Genscript); also called HuPD-L1-his; not shown: his tag
Briefly: ELISA, coated human PD-L1.his, absorbance at 450 nm; upper table.

For assay [2], the target named is T1, human PD-L1.his Protein. In words: ELISA, coated human PD-L1.his, absorbance at 450 nm; lower table. (In general: An ELISA detects its analyte on a solid surface through an enzyme-linked reagent.)
The target in assay [3] is T2, human PD-L1 on CHO cells (human, UniProt Q9NZQ7 19-290). In words: cell-based or functional assay.
T2 sequence (Q9NZQ7 19-290): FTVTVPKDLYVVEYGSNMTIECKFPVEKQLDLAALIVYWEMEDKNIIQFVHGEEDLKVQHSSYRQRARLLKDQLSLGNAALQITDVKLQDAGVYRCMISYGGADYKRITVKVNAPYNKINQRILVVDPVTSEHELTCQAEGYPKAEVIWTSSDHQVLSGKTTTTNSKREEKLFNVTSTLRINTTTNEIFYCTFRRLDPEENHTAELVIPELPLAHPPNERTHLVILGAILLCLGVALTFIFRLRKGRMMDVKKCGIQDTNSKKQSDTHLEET
Assay [4] deals with T1, human PD-L1.his Protein. In words: GATOR instrument kinetics, HuPD-L1-his.
In assay [5] the target is T2, human PD-L1 on CHO cells. Briefly: cell-based or functional assay. This is another data set of the same source.
Assay [6] addresses T1, human PD-L1.his Protein. Briefly: SPR Biacore T200, antibody Fc-captured, antigen as analyte. Here is the method:
The affinity of purified antibody binding to antigen was individually determined using a Surface Plasmon Resonance (SPR) biosensor, BiacoreT200 (GE Healthcare). Antibodies were immobilized on the sensor chip through Fc capture method. Antigen was used as the analyte. The data of dissociation (kd) and association (ka) rate constants were obtained using Biacore T200 evaluation software. The equilibrium dissociation constants (KD) were calculated from the ratio of kd over ka.
For orientation: Surface plasmon resonance follows binding to a sensor surface in real time, without labels.

Assay [7] concerns the target T1, human PD-L1.his Protein. In words: GATOR instrument kinetics, HuPD-L1-his; reference parental antibody AHP01679.
Assay [8] deals with T1, human PD-L1.his Protein. In words: ELISA, coated human PD-L1.his, absorbance at 450 nm.
Procedure: To evaluate the fully human IgGs binding activity to human PD-L1 protein, ELISA EC50 determination was performed. Briefly, human PD-L1.his protein was coated with 0.5 μg/ml in CBS, 100 μl/well at 4° C., incubated for overnight. Washed three times and blocking with 3% BSA-PBS at 37° C. for 1 hour. Then diluted fully human IgGs in 1% BSA-PBS were added to the blocked wells. […] Incubation at room temperature for 2 hours. […] The plates were washed for additional 6 times and the substrate solution were added to the wells for developing reaction. The absorption was measured at 450nm using a spectrometer.

T1 sequence (Q9NZQ7 19-238 limits assumed): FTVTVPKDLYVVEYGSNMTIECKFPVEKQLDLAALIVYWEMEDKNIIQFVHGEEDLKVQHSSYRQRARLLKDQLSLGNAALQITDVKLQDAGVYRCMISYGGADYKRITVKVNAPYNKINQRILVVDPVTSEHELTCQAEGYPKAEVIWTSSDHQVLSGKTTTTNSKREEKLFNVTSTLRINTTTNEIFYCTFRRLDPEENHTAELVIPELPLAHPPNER

In the assay with human PD-L1.his Protein [1], negative control human IgG (antibody) gave an absorbance at 1.3717 ng/ml of 0.078, an absorbance at 4.1152 ng/ml of 0.052, an absorbance at 37.0370 ng/ml of 0.052 and an absorbance at 111.1111 ng/ml of 0.054. For the same molecule, in the assay with human PD-L1.his Protein [1], the absorbance at 333.3333 ng/ml stood at 0.058, the absorbance at 1000 ng/ml is 0.069 and the absorbance at 3000 ng/ml was 0.121. In addition, in the assay with human PD-L1.his Protein [2], the absorbance at 0.00564503 ng/ml was found to be 0.058, the absorbance at 0.01693509 ng/ml was 0.067, the absorbance at 0.05080526 ng/ml turned out to be 0.061 and the absorbance at 0.15241579 ng/ml came to 0.064. In the assay with human PD-L1.his Protein [2], this molecule registered an absorbance at 0.45724737 ng/ml of 0.057, an absorbance at 1.37174211 ng/ml of 0.065, an absorbance at 12.345679 ng/ml of 0.064 and an absorbance at 37.037037 ng/ml of 0.059. In addition, in the assay with human PD-L1.his Protein [2], the absorbance at 111.111111 ng/ml came to 0.067, the absorbance at 333.333333 ng/ml was determined as 0.059 and the absorbance at 1000 ng/ml was 0.081.

B1: AHP01679 (antibody, human IgG1, lambda, V domains shown)
VH: EVQLVQSGAEVKKPGSSVKVSCKASGGTFSSYAISWVRQAPGQGLEWMGRIIPILGIANYAQKFQGRVTITADKSTSTAYMELSSLRSEDTAVYYCTTFIQQWLYAFDIWGQGTMVTVSS
VL: QAVLTQPSSVSGAPGQRVTISCTGSSSNIGAGYDVHWYQQLPGTAPKLLIYGNNNRPSGVPDRFSGSKSGTSASLAITGLQAEDEADYYCQSYDSSLSGSVFGGGTKLTVLG
notes: Fully human full-length IgG (IgG1 constant region, lambda light chain); also called Parental Ab; parental antibody
For orientation: Kd means the constant that tells how readily two partners part at equilibrium. A low value points to higher affinity. A word on the koff: it is the first-order rate constant of dissociation. Lower therefore signals a long-lived complex. In general, kon refers to the second-order rate constant of association. A low value points to slower complex formation. For orientation: EC50 means the concentration giving half of the maximal effect. The low end stands for an effect from little substance, the high end for a need for much substance. Turning to B1, the “EC50 (assay not named; EC50 is defined in paragraph 62 as the concentration of antibody required to block binding of PD-1/PD-L1 by 50%)” value in the assay with human PD-L1 on CHO cells [3] was determined as 0.163 µg/mL. In the assay with human PD-L1.his Protein [4], the Kd is 351 pM, the off-rate (koff) amounted to 0.00132 s⁻¹ and the association rate constant (kon) worked out at 3.77e+06 M⁻¹ s⁻¹. Further, in the assay with human PD-L1 on CHO cells [5], the “EC50 (read off the curve), PD-1/PD-L1 blockade luciferase reporter assay [panel E]” value is around 0.2 µg/mL and the “EC50, PD-1/PD-L1 blockade luciferase reporter assay [panel E]” value came to 0.153 µg/mL. In the assay with human PD-L1.his Protein [6], this molecule had a Kd of 4090 pM, an off-rate constant (koff) of 0.00259 s⁻¹ and an on-rate (kon) of 635000 M⁻¹ s⁻¹. Further, the “KD (Parental Ab)/KD (Candidate Ab)” value with human PD-L1.his Protein [7] was found to be 1 fold. In the assay with human PD-L1.his Protein [8], this molecule came in with an EC50 of 0.00334 µg/mL.

B2: QJ001-45 (antibody, human IgG1, lambda, V domains shown)
VH: EVQLVQSGAEVKKPGSSVKVSCKASGGTFSSYAISWVRQAPGQGLEWMGRIIPILGIANYAQKFQGRVTITADKSTSTAYMELSSLRSEDTAVYYCTTFFQQWLYAFDIWGQGTMVTVSS
VL: QAVLTQPSSVSGAPGQRVTISCFGSSSNIGAGYDVHWYQQLPGTAPKLLIYGNNNRPSGVPDRFSGSKSGTSASLAITGLQAEDEADYYCGSYDSSLSGSVFGGGTKLTVLG
notes: also called P02897
As to B2, the “EC50 (assay not named; EC50 is defined in paragraph 62 as the concentration of antibody required to block binding of PD-1/PD-L1 by 50%)” value with human PD-L1 on CHO cells [3] is 0.0966 µg/mL. Moreover, in the assay with human PD-L1.his Protein [4], the Kd was 33.8 pM, the koff was found to be 0.000145 s⁻¹ and the on-rate (kon) was determined as 4.29e+06 M⁻¹ s⁻¹. Besides, in the assay with human PD-L1.his Protein [7], the “KD (Parental Ab)/KD (Candidate Ab)” value is 10.4 fold.
